pKd: −log10 of the molar value.
Target: ROP18 in total lysate antigen of T. gondii RH (RH Ag) (Toxoplasma gondii RH strain) (UniProt Q2PAY2)
Test: direct ELAA (plate-based aptamer binding)
Conditions: 50 ug/mL RH Ag coated; aptamer 50-500 nM; Direct ELAA: antigen coated in carbonate pH 9.6 overnight 4 C; 1% BSA block; biotin-aptamer in PBS, 0.5% glucose, 0.1% albumin, 1 M MgCl2 (so in the source), 1 h …

Sequence of UniProt Q2PAY2 (Q2PAY2 whole entry): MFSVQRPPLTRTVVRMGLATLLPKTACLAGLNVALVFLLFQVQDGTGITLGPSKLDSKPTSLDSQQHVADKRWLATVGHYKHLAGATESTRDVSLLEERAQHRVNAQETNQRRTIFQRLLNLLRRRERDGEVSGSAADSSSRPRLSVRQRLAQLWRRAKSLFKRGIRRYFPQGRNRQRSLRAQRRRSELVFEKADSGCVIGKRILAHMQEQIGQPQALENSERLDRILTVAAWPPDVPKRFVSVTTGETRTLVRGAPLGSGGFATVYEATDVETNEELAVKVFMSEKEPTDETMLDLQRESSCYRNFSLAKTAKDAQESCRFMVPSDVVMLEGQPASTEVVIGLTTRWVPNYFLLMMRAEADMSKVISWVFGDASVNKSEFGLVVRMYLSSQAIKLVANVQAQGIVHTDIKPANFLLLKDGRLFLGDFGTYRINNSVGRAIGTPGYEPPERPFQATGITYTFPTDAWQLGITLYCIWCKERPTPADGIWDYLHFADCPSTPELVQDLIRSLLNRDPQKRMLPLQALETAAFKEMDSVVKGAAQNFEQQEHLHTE

Sequence	pKd
TCCTGGCAGCGCTTTTGCTTGTTTGCTCTCGTACCTGTCC [AP001]	7.20
CGCACCGATCCGGTGTTAATCTCGACGTCCCTTAAGTTTG [AP002]	7.01
